# Data taken from patent publication US20250032605A1.
# Key:
# [1] = target: SARS-1 RBD (SARS-CoV receptor binding domain, monomer) (SARS-CoV (SARS-1)) (UniProt P59594); assay: BLI, Fab on FAB2G sensor, RBD as analyte, apparent KD
# [2] = target: WIV1 RBD (WIV1-CoV receptor binding domain, monomer) (WIV1-CoV); assay: as above
# [3] = target: SARS-2 RBD (wild-type SARS-CoV-2 receptor binding domain, monomer) (SARS-CoV-2) (UniProt P0DTC2); assay: BLI, Fab on FAB2G sensor, RBD as analyte, apparent KD
Substance,Kd [1] [nM],Kd [2] [nM],Kd (SARS-2^hg (row Trimer)) [nM],Kd [3] [nM]
CR3022 Fab,27,37,–,–
B38 Fab,–,–,3200,970
